In patent publication US20110014224A1:

Molecular target: HLA-B1501 (human)
Test: competition with radiolabeled probe peptide for purified HLA, plate capture, cpm

Binder: AVINTTCNYGQ (modifications not checked) [Mtb8.4 5-15 peptide …]
- IC50: 10 nM
